Data published in US11666658B2, “Rifamycin analogs and antibody-drug conjugates thereof” (Regeneron Pharmaceuticals, Inc., priority 2018, dated 2023).

Experiments:
[1] = molecular target: T1, mouse MSR1 extracellular domain (His9-mMSR1) (Mus musculus, UniProt P30204); assay: OCTET bio-layer interferometry binding kinetics, 25° C.; details: antibody-capture format
T1 construct: mouse MSR1 extracellular domain expressed with a N-terminal nonahistidine tag; purchased R&D Systems 1797-MS
T1 sequence (P30204 79-458 limits assumed): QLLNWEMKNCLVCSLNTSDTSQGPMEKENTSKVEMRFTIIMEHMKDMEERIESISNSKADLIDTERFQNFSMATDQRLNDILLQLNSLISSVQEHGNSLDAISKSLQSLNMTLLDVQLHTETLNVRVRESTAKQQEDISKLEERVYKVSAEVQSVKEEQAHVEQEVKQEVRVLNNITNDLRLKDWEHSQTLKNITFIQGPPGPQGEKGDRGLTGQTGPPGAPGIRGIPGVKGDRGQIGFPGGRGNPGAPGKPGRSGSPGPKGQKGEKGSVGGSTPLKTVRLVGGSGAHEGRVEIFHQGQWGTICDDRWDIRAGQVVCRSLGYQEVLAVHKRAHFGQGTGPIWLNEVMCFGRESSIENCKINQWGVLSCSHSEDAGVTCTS
Procedure: Binding affinities and kinetic constants of human anti-MSR1 antibodies for different MSR1 reagents were determined using a real time, label-free bio-layer interferometry assay on an OCTET® HTX biosensor platform (Pall FortéBio Corp., Menlo Park, Calif.). The experiment was performed at 25° C. in 10 mM HEPES, 150 mM NaCl, 3 mM EDTA, 0.05% v/v Surfactant Tween-20, and 1 mg/mL BSA, pH7.4 (HBS-EBT) buffer with the plate shaking at the speed of 1000 rpm. […] The binding of different MSR1 reagents to the captured anti-MSR1 monoclonal antibody was measured for 4 minutes and the dissociation of monoclonal antibody bound MSR1 reagent was monitored for 8-10 minutes in HBS-EBT buffer.
The association rate (ka) and dissociation rate (kd) were determined by fitting the real-time binding sensorgrams to a 1:1 binding model with mass transport limitation using Scrubber 2.0 c curve-fitting software. Binding dissociation equilibrium constant (KD) and dissociative half-life (t½) were calculated from the kinetic rates as: […]

[2] = test system: MSR1 negative B16F10.9 cells; assay: Flow cytometry cell surface binding, MSR1 negative cells; set-up: species or system mouse
Procedure: Relative cell surface binding of the anti-MSR1 antibodies to mouse MSR1 expressing cells was determined by flow cytometry using MSR1 positive RAW264.7 cells (ATCC, Catalog #TIB-71) and MSR1 negative B16F10.9 cells (Lin et al. 1998. PNAS 95:8829-8834). For the assay, cells were plated in PBS without calcium and magnesium (VWR Cat #45000-446) and 2% FBS (Saradigm Cat #1500-500) (Staining Buffer) in 96 well V-bottom plates (Axygen Scientific, Cat #P-96-450-V-C-S). To block binding to Fc receptors, RAW264.7 cells were incubated for 30 minutes at 4° C. with 500 μg/mL mouse IgG (Jackson ImmunoResearch, Cat #015-000-003) diluted in staining buffer, while B16F10.9 cells remained in staining buffer. Following Fc receptor blocking, 10 μg/mL of anti-MSR1 antibodies or an isotype control antibody were added to the cells and were subsequently incubated for 30 minutes on ice. For a positive control, a commercial anti-mouse MSR1 (Sino Biological, Cat #50129-R004) antibody was used, while a rabbit IgG antibody (Thermo Scientific, Cat #26102) was used as a negative control. […] Cells were subsequently washed and fixed using a 50% solution of Cytofix (BD Biosciences, Cat #554655) diluted in PBS. […] The signal to noise (S/N) was determined by calculating the ratio of the anti-MSR1 antibodies or the control antibodies MFI to the unstained sample MFI (Table 16).

B1: H1H21234N-N297Q: "An anti-MSR1 antibody H1H21234N containing a N297Q mutation, which eliminates N-linked glycosylation of the Fc at this site" (antibody, V domains shown)
VH: QVQLQESGPGLVKPSETLSLTCTVTGGSISRNYWSWIRQPPGKGLEWIGYIYYSGSIDYNPSLKSRVTISVDTSKNQFSLKLSSMTAADTAVYYCARDRWNWKYGMDVWGQGTTVIVSS
VL: EIVLTQSPGTLSLSPGERATLSCRASQTVRNNYLAWYHQKPGQAPRLLIYGASSRATGIPDRFSGSGSGTDFTLTISRLEPEDFTVYYCHQYGNSPWTFGQGTKMEIKR
**Q.** For B1, which kd ([1]; analyte His9-mMSR1, * = no dissociation observed, kd manually fixed at 5.00E−05) is on record?
**A.** 5.00E−05* s^−1

**Q.** What about the ka ([1]; analyte His9-mMSR1, NB = no binding, IC = inconclusive) of the same molecule?
**A.** 38200 M⁻¹ s⁻¹

**Q.** And the “B16F10.9 MFI” value ([2]; 10 μg/mL antibody, flow cytometry)?
**A.** 3499

**Q.** What about the “B16F10.9 S/N” value ([2]; ratio of antibody MFI to unstained sample MFI) of the same molecule?
**A.** 1
